Reference: article PMC2654182 (Biochemistry, 2008)

T1: BARD1 (423-777) (human, UniProt Q99728 423-777)
T1 sequence (looked up): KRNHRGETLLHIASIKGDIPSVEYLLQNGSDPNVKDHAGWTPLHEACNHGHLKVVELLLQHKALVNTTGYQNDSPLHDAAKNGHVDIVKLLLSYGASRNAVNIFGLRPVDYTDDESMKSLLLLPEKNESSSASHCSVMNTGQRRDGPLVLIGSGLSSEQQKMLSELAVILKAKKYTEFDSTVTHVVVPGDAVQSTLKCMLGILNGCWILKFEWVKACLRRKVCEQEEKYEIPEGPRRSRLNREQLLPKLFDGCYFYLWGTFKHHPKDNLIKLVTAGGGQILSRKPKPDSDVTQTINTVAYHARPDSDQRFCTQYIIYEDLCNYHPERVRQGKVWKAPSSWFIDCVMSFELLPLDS

B1: GST-CstF-50 (92-431) (domain or fragment, human, UniProt Q05048 92-431, looked up)
chain: MSPEASEYETCYVTSHKGPCRVATYSRDGQLIATGSADASIKILDTERMLAKSAMPIEVMMNETAQQNMENHPVIRTLYDHVDEVTCLAFHPTEQILASGSRDYTLKLFDYSKPSAKRAFKYIQEAEMLRSISFHPSGDFILVGTQHPTLRLYDINTFQCFVSCNPQDQHTDAICSVNYNSSANMYVTGSKDGCIKLWDGVSNRCITTFEKAHDGAEVCSAIFSKNSKYILSSGKDSVAKLWEISTGRTLVRYTGAGLSGRQVHRTQAVFNHTEDYVLLPDERTISLCCWDSRTAERRNLLSLGHNNIVRCIVHSPTNPGFMTCSDDFRARFWYRRSTTD

Legend:
GST-CstF-50 (92-431) = target: B1; assay: pull-down
BARD1 (423-777) = target: T1, BARD1 (423-777); assay: pull-down

Binder	binding result (GST-CstF-50 (92-431))	binding result (BARD1 (423-777))
BARD1 (554-777) (domain or fragment, human, UniProt Q99728 554-777, looked up) ASHCSVMNTGQRRDGPLVLIGSGLSSEQQKMLSELAVILKAKKYTEFDSTVTHVVVPGDAVQSTLKCMLGILNGCWILKFEWVKACLRRKVCEQEEKYEIPEGPRRSRLNREQLLPKLFDGCYFYLWGTFKHHPKDNLIKLVTAGGGQILSRKPKPDSDVTQTINTVAYHARPDSDQRFCTQYIIYEDLCNYHPERVRQGKVWKAPSSWFIDCVMSFELLPLDS	binds	
B1		binds
